In article PMC6277972:

Biological target: P74-26 gp87 (Head Decoration Protein gp87 from Thermus phage P74-26) (Thermus bacteriophage P74-26)
Test: SEC-MALS

Work on “P74-26 gp87 (Head Decoration Protein gp87 from Thermus phage P74-26) (natural protein)” yielded a stoichiometry N of 3.
